# In IntAct's records for PubMed 9845372:
# B1: Double-strand break repair protein MRE11 (Saccharomyces cerevisiae), P32829 (parent)
# chain: MDYPDPDTIRILITTDNHVGYNENDPITGDDSWKTFHEVMMLAKNNNVDMVVQSGDLFHVNKPSKKSLYQVLKTLRLCCMGDKPCELELLSDPSQVFHYDEFTNVNYEDPNFNISIPVFGISGNHDDASGDSLLCPMDILHATGLINHFGKVIESDKIKVVPLLFQKGSTKLALYGLAAVRDERLFRTFKDGGVTFEVPTMREGEWFNLMCVHQNHTGHTNTAFLPEQFLPDFLDMVIWGHEHECIPNLVHNPIKNFDVLQPGSSVATSLCEAEAQPKYVFILDIKYGEAPKMTPIPLETIRTFKMKSISLQDVPHLRPHDKDATSKYLIEQVEEMIRDANEETKQKLADDGEGDMVAELPKPLIRLRVDYSAPSNTQSPIDYQVENPRRFSNRFVGRVANGNNVVQFYKKRSPVTRSKKSGINGTSISDRDVEKLFSESGGELEVQTLVNDLLNKMQLSLLPEVGLNEAVKKFVDKDEKTALKEFISHEISNEVGILSTNEEFLRTDDAEEMKALIKQVKRANSVRPTPPKENDETNFAFNGNGLDSFRSSNREVRTGSPDITQSHVDNESRITHISQAESSKPTSKPKRVRTATKKKIPAFSDSTVISDAENELGDNNDAQDDVDIDENDIIMVSTDEEDASYGLLNGRKTKTKTRPAASTKTASRRGKGRASRTPKTDILGSLLAKKRK
# partner: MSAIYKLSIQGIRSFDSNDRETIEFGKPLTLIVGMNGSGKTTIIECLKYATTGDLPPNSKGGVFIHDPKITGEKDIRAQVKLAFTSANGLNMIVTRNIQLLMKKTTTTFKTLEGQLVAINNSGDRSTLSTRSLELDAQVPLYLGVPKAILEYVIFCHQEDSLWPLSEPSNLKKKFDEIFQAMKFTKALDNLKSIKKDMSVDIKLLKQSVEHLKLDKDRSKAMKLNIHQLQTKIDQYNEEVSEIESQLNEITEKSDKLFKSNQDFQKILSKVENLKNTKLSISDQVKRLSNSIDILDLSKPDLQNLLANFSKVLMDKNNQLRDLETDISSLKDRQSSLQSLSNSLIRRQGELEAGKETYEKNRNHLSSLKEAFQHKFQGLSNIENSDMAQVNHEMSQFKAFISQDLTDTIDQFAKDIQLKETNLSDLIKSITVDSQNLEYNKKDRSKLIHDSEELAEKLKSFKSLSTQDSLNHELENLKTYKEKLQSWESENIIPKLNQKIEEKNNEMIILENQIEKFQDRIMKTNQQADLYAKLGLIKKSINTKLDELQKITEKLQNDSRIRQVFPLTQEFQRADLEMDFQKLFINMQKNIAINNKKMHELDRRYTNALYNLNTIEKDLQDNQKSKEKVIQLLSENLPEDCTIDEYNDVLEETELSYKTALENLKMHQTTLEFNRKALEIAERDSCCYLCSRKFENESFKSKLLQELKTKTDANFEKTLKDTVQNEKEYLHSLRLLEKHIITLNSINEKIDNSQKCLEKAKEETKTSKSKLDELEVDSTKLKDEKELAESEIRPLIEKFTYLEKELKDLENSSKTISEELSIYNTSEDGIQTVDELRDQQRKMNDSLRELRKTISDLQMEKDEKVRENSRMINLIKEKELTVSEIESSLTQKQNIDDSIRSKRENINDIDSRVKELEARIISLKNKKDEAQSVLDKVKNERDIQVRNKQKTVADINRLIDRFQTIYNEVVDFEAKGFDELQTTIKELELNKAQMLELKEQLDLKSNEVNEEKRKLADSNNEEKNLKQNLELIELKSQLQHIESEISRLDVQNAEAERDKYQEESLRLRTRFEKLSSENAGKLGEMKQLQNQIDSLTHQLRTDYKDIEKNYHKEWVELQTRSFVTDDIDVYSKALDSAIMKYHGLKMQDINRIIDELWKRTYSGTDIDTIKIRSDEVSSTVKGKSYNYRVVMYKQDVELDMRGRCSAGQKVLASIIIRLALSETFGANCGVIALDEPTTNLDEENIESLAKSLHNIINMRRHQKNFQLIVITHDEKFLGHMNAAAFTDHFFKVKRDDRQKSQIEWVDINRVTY
# Variants of: B1
# Conditions: with rad50_yeast RAD50, P12753
row,effect of a mutation on the interaction,Variant
1,disrupting interaction,H213Y;L225I
